According to publication PMC2908683:

What was measured:
Assay in all cases: immobilized peptide pulldown, SILAC LC-MS/MS
Conditions in all cases: reference: unphosphorylated peptide; sites Y595
Nck1 = Nck1 (UniProt P16333)
Nck2 = Nck2 (UniProt O43639)
PLCγ1 = PLCγ1 (UniProt P19174)
SLP-76 = SLP-76 (UniProt Q13094)

fold change (Nck1): stronger
fold change (Nck2): stronger
fold change (PLCγ1): stronger
fold change (SLP-76): stronger
Substance: ADAP 586-600 (from UniProt O15117) pY595 peptide
